The values below come from patent publication US20250228955A1 (ALBERT EINSTEIN COLLEGE OF MEDICINE, published 2025).

Where two headings read alike, the source gives them in different places.

For test [1], the target named is T1, recombinant Strep-tagged SARS-CoV-2 trimeric spike (SARS-CoV-2, UniProt P0DTC2 14-1208).
In test [2] the target is T1, recombinant Strep-tagged SARS-CoV-2 …. The source holds these as a separate data set.
Test [3] addresses T2, human epidermal growth factor receptor (EGFR) (human, UniProt P00533 25-645).
For test [4], the target named is T1, recombinant Strep-tagged SARS-CoV-2 …. The source holds these as a separate data set.
Test [5] shares this target. The source holds these as a separate data set.
The target of test [6] is T2, human epidermal growth factor receptor …. Kind of test: biolayer interferometry.

B1: ODIN-1-A56R fusion (ODIN-1 fused to vaccinia virus (VACV) A56R for rVACV display) (bispecific antibody, V domains shown)
VH: MGWFRQTNKKECPEDYTYNPRCPQQYGWSDCDCMGDRFGGYCRQDGCSNYIHRSTREFVATISWSGGSTYYTDSVKGRFTISRDNAKNTVYLQMNSLKPDDTAVYYCAAAGLGTVVSEWDYDYDYWGQGTQVTVSS
What is called EC50 (read off the curve) is the concentration that produces a half-maximal response. Consider B1, for which the “EC50 (read off the curve)” value is around 0.06 µg/mL in test [1] and around 0.2 µg/mL in test [2].

B2: ODIN-8 (VHH-72.58 with UL-CDR3 from 60H05 bovine IgG in FR2 loop) (bispecific antibody, V domains shown)
VH: MGWFRQNKLKSCPDGYTSGVECRFRGYTCANDGCWRVCSFTTCSGWMPASDTYRREFVATISWSGGSTYYTDSVKGRFTISRDNAKNTVYLQMNSLKPDDTAVYYCAAAGLGTVVSEWDYDYDYWGQGTQVTVSS
Usually Kd stands for the free concentration of one partner at which half of the binding sites on the other are occupied at equilibrium, for simple one-to-one binding. Usually koff stands for a measure of how fast the partners let go of each other. As a reminder, the kon is the rate constant with which the complex forms. In test [3], B2 gave a Kd of 11.4 nM, a koff of 0.00103 s⁻¹ and a kon of 90500 M⁻¹ s⁻¹. Further, in test [4], the Kd came out at 76.4 nM, the koff is 0.012 s⁻¹ and the kon stood at 158000 M⁻¹ s⁻¹.

B3: VHH-72 (SARS-CoV-2 spike VHH, soluble recombinant) (VHH)
VHH: QVQLQESGGGLVQAGGSLRLSCAASGRTFSEYAMGWFRQAPGKEREFVATISWSGGSTYYTDSVKGRFTISRDNAKNTVYLQMNSLKPDDTAVYYCAAAGLGTVVSEWDYDYDYWGQGTQVTVSS
notes: also called parental VHH-72; VHH 72.58
Consider B3, for which, in test [5], the Kd is 460 nM, the koff turned out to be 0.0364 s⁻¹ and the kon came to 79200 M⁻¹ s⁻¹. In addition, in test [6], the binding result was “no binding”.

B4: VHH-72-A56R fusion (VHH-72 fused to vaccinia virus (VACV) A56R for rVACV display) (VHH)
VHH: QVQLQESGGGLVQAGGSLRLSCAASGRTFSEYAMGWFRQAPGKEREFVATISWSGGSTYYTDSVKGRFTISRDNAKNTVYLQMNSLKPDDTAVYYCAAAGLGTVVSEWDYDYDYWGQGTQVTVSS
Take B4: in test [1], the “EC50 (read off the curve)” value is around 0.07 µg/mL.
